System: MS2 coat protein
Assay: apparent KD of MS2 coat protein; designed switch direction (-1 OFF switch, 1 ON switch): 1; higher = weaker reporter binding
Method in brief: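 Designed RNA switches with common flanks were made on Illumina chips by stalled E. coli RNA polymerase. Titration with SNAP-549-labelled MS2 coat protein doubled from 0.7 or 1.5 nM up to 3 µM. Apparent KD is each design's median over clusters after curve-fitting normalised fluorescence.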

[1] = input ligand: microRNA oligo, concentration not stated
[2] = Eterna round: R95, input ligand: FMN 200 uM
[3] = Eterna round: R95, input ligand: microRNA oligo, concentration not stated
[4] = Eterna round: R95, input ligand: none

Row | Sequence | apparent KD of MS2 coat protein (input ligand: FMN 200 uM) [nM] | apparent KD of MS2 coat protein [1] [nM] | apparent KD of MS2 coat protein (input ligand: none) [nM] | apparent KD of MS2 coat protein [2] [nM] | apparent KD of MS2 coat protein [3] [nM] | apparent KD of MS2 coat protein [4] [nM]
1 | AUACAUAUCAGAGGAUAUCACGUCGUUUAGACGUGAGAAGGCUGAUCACACAUGAAUAUUAAUACAUGAGGAUCACCCAUGUAU [SSNG1/14-A3] (Eterna round: R96, puzzle: Same State NG 1) | 13.7 | 13.4 | 20.9 | – | – | –
2 | GAGCCAGUCCGAGGAUAUUCAUAUACAUGAGGAUCACCCAUGUAGGCUCAGAAAAGAGAGCCUUGGGAGAAGGCGGACUGGCUC [Xeonanisa<<4] (Eterna round: R96, puzzle: Same State NG 2) | 8.38 | 27.3 | 50.8 | – | – | –
3 | UCACCUAUCGACAUGAGGAUCACCCAUGUGGAUUGAGCUUCCAAGGAUAUCGGCGCACAACCCAUCGAGAAGGUGGAAAGAUAC [Eternabot solution 32] (Eterna round: R96, puzzle: Same State NG 3) | 16.6 | 12.3 | 18 | – | – | –
4 | CGACUAAAGUCACAGGAUAUACGCCGUACUACAUGAGGAUCACCCAUGUUCGGGACAGUCGCGGUGUAGAAGGGUGUGGGUCAAC [Errabeed] (puzzle: Same State 2) | – | – | – | 17.6 | 31.2 | 38.9
5 | UCAAGAUCGCGAGGAUAUCGCGAGGAUCACCCGUGAGAAGGCGCAGAGCCGAGGAUCACCCGGCUGAUCCUGAGGAGGAGGUAA (Eterna round: R96, puzzle: Same State NG 1) | 139 | 234 | 420 | – | – | –
6 | AGUCCAGCCUGAGCUGGACAAAAGCAUGUACAUGAGGAUCACCCAUGUUCAUGUACAAGCUUUUUGCUCGUCAUAAA [Mat - hsa-mir-208a - Mod of JL - 51] (puzzle: Sensor for hsa-mir-208a) | – | – | – | 402 | 14.9 | 474
7 | AGGCUCAGACUAGGAUAUGAUCAUGGCGCUUCGGCGCAUACAUGAGGAUCACCCAUGUAAAGUGAUCAGAAGGAGUCUGAGCCA [SSNG2/7-C1] (Eterna round: R96, puzzle: Same State NG 2) | 9.82 | 9.08 | 13.6 | – | – | –
8 | AUUUUUAAUGCAGGAUAUGAUUAACAUGAGGAUCACCCAUGUGGUGUUGUGAGUAAGGAGAGUGAUCAGAAGGGCAUUUCUUUU [JMF's solution 82] (Eterna round: R96, puzzle: Same State NG 2) | 593 | 337 | 540 | – | – | –
9 | UGUUUGUUGUGAGGAUAUACGUACACCCUACAUGAGGAUCACCCAUGUUGUUCCCUUGAUUGUUGGUAGAAGGCACUUGGUUAU [JR_SSNG2_Sub049] (Eterna round: R96, puzzle: Same State NG 2) | 216 | 122 | 118 | – | – | –
10 | UGCUAGGAUAUCUUGAGGAUCACCCAGGAGAAGGAGUAAAGUUAGGAUAUCCUGAGGAUCACCCAGGAGAAGGAGCACAUACUC [pwkr ssNG3 DX 2xF5 +2xFMN.14] (Eterna round: R96, puzzle: Same State NG 3) | 50.7 | 79.8 | 58.4 | – | – | –
11 | CUCAACAACACAGGAUAUCCAGGUAAAAGACCUGGAGAAGGGUGACCAACAUGAGGAUCACCCAUGUGACAGCCAGGCUGUCUG [Isbitiqu] (Eterna round: R96, puzzle: Same State NG 1) | 87.8 | 4.41 | 371 | – | – | –
12 | ACAAGCUUUUCUGUAGUGAAAGGUGGGAUACAUGAGGAUCACCCAUGUAUUGUUGUCAAUAUUUGUCCUCGUCUUAU [JR_SHM208A_Sub086] (puzzle: Sensor for hsa-mir-208a) | – | – | – | 31.4 | 11 | 31.1
13 | AAAGAAGAAAGACAGGAUAUGGAUGGGUAAACAUGAGGAUCACCCAUGUAUAAGAAAGAAAGAAACCAGAAGGGUCAAAAGAAAA [Darius III] (Eterna round: R96, puzzle: Same State 2) | 68.7 | 217 | 253 | – | – | –
14 | AUAUGAGAAGCAGGAUAUGCGGAGAAGAAAGAAGCAGAAGGGCUUAUGGGACAACAUGAGGAUCACCCAUGUUCUCUGUGAUGA [AK SSNG1-V2-3] (Eterna round: R96, puzzle: Same State NG 1) | 24.3 | 48.9 | 56.5 | – | – | –
15 | UCUGCAAGAACAGGAUAUGGGUUCAGAGCGGGAGUGCGCUUUGAUACAUGAGGAUCACCCAUGUCCCAGAAGGGUUCAAGCGGC [Maedraedbi] (Eterna round: R96, puzzle: Same State NG 2) | 32.9 | 35.2 | 188 | – | – | –
16 | AGGGCCGCGGCACAGGAUAUGCACAGGUUCACAUGAGGAUCACCCAUGUGCUCUAGAUAACUUAAGCAGAAGGGUGUCAUGGUAA [Biarrace] (puzzle: Same State 2) | – | – | – | 11.2 | 12 | 14.1
17 | CUUUUUCACUAUACAUGAGGAUCACCCAUGUUAUCAUCAUGAGAGGAUAUCGUAAUAGGAUUUUUCGAGAAGGCUCUAAAGUAU [JR_SSNG3_Sub079] (Eterna round: R96, puzzle: Same State NG 3) | 26.3 | 43 | 45 | – | – | –
18 | GAAACAUGACGAGGAUAUGGUACAUGAGGAUCACCCAUGUAUGUACCACGACGCGUACGUCGAAUCCAGAAGGCGUCGUGAAAG [Mat - Same State NG 2 - JL mod - D20] (Eterna round: R96, puzzle: Same State NG 2) | 27.8 | 51.1 | 86.4 | – | – | –
19 | ACAUGAAAUGCAGGAUAUUUUGUACCUACAUGUGACAUGAGGAUCACCCAUGUGGUAAGUAUAAGAGAGAAGGGUAAGAUAUGU [Equivalence 3 - Jieux - Same State NG 2] (Eterna round: R96, puzzle: Same State NG 2) | 60.6 | 48.3 | 72.3 | – | – | –
20 | GACAAUCUAUCUGAGGAUAUCAUGAAGAAAACAUGAGGAUCACCCAUGUGCAGGAUAACUGCAAAUGAGAAGGCAGAUAGAUUGG [Mat - Same State 2 - Mod - D3] (puzzle: Same State 2) | – | – | – | 10.9 | 16.8 | 20
21 | AUGCCAAAUGGAGGAUAUGGAGCCUUAUUGGCUCCAGAAGGUCAAACAUGAGGAUCACCCAUGUGGCAGUGGUCUAAUGACCAC [Eli NG1ss - 45] (Eterna round: R96, puzzle: Same State NG 1) | 110 | 192 | 368 | – | – | –
22 | GCUACCAAAGAAGCCAACAUGAGGAUCACCCAUGUAUGUUGGUAGGAUAUCGUUUGCAAAGCAAACGAGAAGGGCUAAGGUAGC [Mat - Same State NG 3 - JL Mod - D77] (Eterna round: R96, puzzle: Same State NG 3) | 138 | 99.2 | 107 | – | – | –
23 | AGUCCAGCCUGAGCUGGACUGAAGCAUGUACAUGAGGAUCACCCAUGUUCAUGUGCAGGCUUUUUGCUCGUCUUAUG [JL-shm-2.01 JL mod] (puzzle: Sensor for hsa-mir-208a) | – | – | – | 84.7 | 13.5 | 108
24 | GCGGACCUGACAUGAGGAUCACCCAUGUUGCGGAGACGCAAUGAGGAUAUCGAUGGGUUUCCCGUCGAGAAGGCAUAAAUCCGC [JL SSNG3 3.93 mod 3] (Eterna round: R96, puzzle: Same State NG 3) | 15.1 | 16 | 25.2 | – | – | –
25 | GUAACAUGACGAGGAUAUGGAACAUGAGGAUCACCCAUGUAUGUUCCAUAACGCGAAUGACGAAUCCAGAAGGCGUCGUGAAUG [Mat - Same State NG 2 - JL mod - D29] (Eterna round: R96, puzzle: Same State NG 2) | 41.7 | 124 | 220 | – | – | –
26 | UUAAUGAUGAAAGGAUAUACAUGAGGAAUUCUCGUAGAAGGUUCAUGACAUGAGGAUCACCCAUGUAUCGCUCCGUAGAGCGUA [JL SSNG1 1.13] (Eterna round: R96, puzzle: Same State NG 1) | 713 | 38.4 | 82.6 | – | – | –
27 | AUUAAACAUGAGGAUCACCCAUGUCAACAAAGUCGAGGAUAUGGGCAAAUAAAAUAAGAACCAGAAGGCGUAUAAU [salish99_ss1_r3_077] (puzzle: Same State 1) | – | – | – | 75.9 | 363 | 636

Reference: the supplement of paper PMC9170038
